These results are taken from the supplement of paper PMC7877785.

± gives the uncertainty stated by the source.

This data set is described as follows: self-splicing fitness, log relative to wild type (ln ratio); higher = more splicing; Tetrahymena group I intron in knt gene, E. coli kanamycin selection, DiMSum; sequences stand for … in CUCUCU…GGAGGGAAAAGUUAUCAGGCAUGCACCUGGUAGCUAGUCUUUAAACCAAUAGAUUGCAUCGGUUUAAAAGGCAAGACCGUCAAAUUGCGGGAAAGGGGUCAACAGCCGUUCAGUACCAAGUCUCAGGGGAAACUUUGAGAUGGCCUUGCAAAGGGUAUGGUAAUAAGCUGACGGACAUGGUCCUAACCACGCAGCCAAGUCCUAAGUCAACAGAUCUUCUGUUGAUAUGGAUGCAGUUCACAGACUAAAUGUCGGUCGGGGAAGAUGUAUUCUUCUCAUAAGAUAUAGUCGGACCUCUCCUUAAUGGGAGCUAGCGGAUGAAGUGAUGCAACACUGGAGCCGCUGGGAACUAAUUUGUAUGCGAAAGUAUAUUGAUUAGUUUUGGAGUACUCGUGGUCG
An outline of the steps:
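Colonies from six replicate transformations of E. coli BL21(DE3) were pooled and amplicon-sequenced on an Illumina HiSeq 2500. The library placed an intron with all eight P1ex-region nucleotides randomised inside the knt kanamycin-resistance gene on pET-22b(+), and cells grew overnight at 37°C or 30°C on LB agar with or without 25 μg/mL kanamycin (plus 100 μg/mL carbenicillin, 50 μM IPTG, 0.2% rhamnose). Fitness is the DiMSum error-weighted combination of wild-type-normalised replicate fold changes, kanamycin versus none.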

ACCCAGCAAUAUUACGCUAA: the “self-splicing fitness (ln)” value is, setting by setting: (30 °C) -1.67 ± 0.069; (37 °C) -1.33 ± 0.068. Taken in the same sequence, the figures for ACCCAGCAAUAUUACGGCCA were -1.17 ± 0.075 and -0.171 ± 0.09. Regarding ACCCAGCAAUAUUACGGCGU, the “self-splicing fitness (ln)” value runs as follows: (30 °C) -2.08 ± 0.081; (37 °C) -0.746 ± 0.084. ACCCAGCAAUAUUACGGGUG: the “self-splicing fitness (ln)” value (30 °C) is -2.14 ± 0.061 and the “self-splicing fitness (ln)” value (37 °C) is -0.937 ± 0.058.

Regarding ACCCAGCAAUAUUACGGUGU, the “self-splicing fitness (ln)” value (30 °C) was -2.69 ± 0.076 and the “self-splicing fitness (ln)” value (37 °C) was -1.64 ± 0.11. The matching figures for ACCCAGCAAUAUUACGUACU: -1.12 ± 0.059 and -0.926 ± 0.08. For ACCCAGCAAUAUUACGUAGA, the “self-splicing fitness (ln)” value runs as follows: (30 °C) -2.03 ± 0.1; (37 °C) -1.39 ± 0.11.

With ACCCAGCAAUAUUACGUCGA, the “self-splicing fitness (ln)” value runs as follows: (30 °C) -1.03 ± 0.078; (37 °C) -0.528 ± 0.077. Taken in the same sequence, the figures for ACCCAGCAAUAUUACGUCGC were -1.39 ± 0.069 and -0.784 ± 0.076. On to ACCCAGCAAUAUUACGUCUA, for which the “self-splicing fitness (ln)” value by setting is: (30 °C) -1.41 ± 0.093; (37 °C) -0.988 ± 0.09.

For the sequence ACCCAGCAAUAUUACGUUAA, the “self-splicing fitness (ln)” value is, setting by setting: (30 °C) -1.6 ± 0.078; (37 °C) -0.769 ± 0.071. For ACCCAGCAAUAUUACGUUCU, the “self-splicing fitness (ln)” value is -1.31 ± 0.062 (30 °C) and -1 ± 0.071 (37 °C). With ACCGAGCAAUAUUACGAAUC, the “self-splicing fitness (ln)” value (30 °C) is -4.8 ± 0.42 and the “self-splicing fitness (ln)” value (37 °C) is -2.61 ± 0.32. Consider ACCGAGCAAUAUUACGAGCG, for which the “self-splicing fitness (ln)” value (30 °C) is -3.24 ± 0.21 and the “self-splicing fitness (ln)” value (37 °C) is -0.734 ± 0.16. Regarding ACCGAGCAAUAUUACGAGGG, the “self-splicing fitness (ln)” value by setting is: (30 °C) -3.2 ± 0.17; (37 °C) -3.06 ± 0.21. Take ACCGAGCAAUAUUACGAUCA: the “self-splicing fitness (ln)” value (30 °C) was -2.6 ± 0.24 and the “self-splicing fitness (ln)” value (37 °C) was -0.928 ± 0.19.

On to ACCGAGCAAUAUUACGCACU, for which the “self-splicing fitness (ln)” value runs as follows: (30 °C) -1.62 ± 0.14; (37 °C) -0.517 ± 0.13. As for ACCGAGCAAUAUUACGCCUU, the “self-splicing fitness (ln)” value is, setting by setting: (30 °C) -2.75 ± 0.24; (37 °C) -1.32 ± 0.19. With ACCGAGCAAUAUUACGCGUA, the “self-splicing fitness (ln)” value reads like this: (30 °C) -2.38 ± 0.14; (37 °C) -0.999 ± 0.12. With ACCGAGCAAUAUUACGGAAU, the “self-splicing fitness (ln)” value reads like this: (30 °C) -3.65 ± 0.2; (37 °C) -2.33 ± 0.25. In the case of ACCGAGCAAUAUUACGGAGA, the “self-splicing fitness (ln)” value reads like this: (30 °C) -1.34 ± 0.29; (37 °C) -1.48 ± 0.28. For ACCGAGCAAUAUUACGUGAA, the “self-splicing fitness (ln)” value (30 °C) was -4.46 ± 0.17 and the “self-splicing fitness (ln)” value (37 °C) is -2.3 ± 0.14. In the case of ACCGAGCAAUAUUACGUUGC, the “self-splicing fitness (ln)” value reads like this: (30 °C) -3.29 ± 0.32; (37 °C) -1.33 ± 0.25. With ACCUAGCAAUAUUACGAACG, the “self-splicing fitness (ln)” value (30 °C) was -1.25 ± 0.12 and the “self-splicing fitness (ln)” value (37 °C) was -1.07 ± 0.19.

Regarding ACCUAGCAAUAUUACGAAUU, the “self-splicing fitness (ln)” value (30 °C) was -2.72 ± 0.13 and the “self-splicing fitness (ln)” value (37 °C) is -0.574 ± 0.12.

Consider ACCUAGCAAUAUUACGACGA, for which the “self-splicing fitness (ln)” value reads like this: (30 °C) -0.405 ± 0.11; (37 °C) -0.784 ± 0.093. Consider ACCUAGCAAUAUUACGCCAC, for which the “self-splicing fitness (ln)” value (30 °C) was -2.11 ± 0.4. As for ACCUAGCAAUAUUACGCCUC, the “self-splicing fitness (ln)” value was -1.88 ± 0.13 (30 °C) and -1.51 ± 0.15 (37 °C). As for ACCUAGCAAUAUUACGGAAA, the “self-splicing fitness (ln)” value is -1.79 ± 0.16 (30 °C) and -1.51 ± 0.12 (37 °C). On to ACCUAGCAAUAUUACGGAAU, for which the “self-splicing fitness (ln)” value runs as follows: (30 °C) -1.96 ± 0.08; (37 °C) -1.19 ± 0.09. For ACCUAGCAAUAUUACGGAGU, the “self-splicing fitness (ln)” value is, setting by setting: (30 °C) -3.61 ± 0.13; (37 °C) -2.39 ± 0.12.

Turning to ACCUAGCAAUAUUACGGCCA, the “self-splicing fitness (ln)” value was -1.33 ± 0.13 (30 °C) and -0.234 ± 0.12 (37 °C).

ACCUAGCAAUAUUACGGCGU: the “self-splicing fitness (ln)” value (30 °C) is -0.278 ± 0.056 and the “self-splicing fitness (ln)” value (37 °C) was 0.12 ± 0.07. The matching figures for ACCUAGCAAUAUUACGGGGC: -3.06 ± 0.15 and -1.66 ± 0.15. As to ACCUAGCAAUAUUACGGGUC, the “self-splicing fitness (ln)” value reads like this: (30 °C) -4.05 ± 0.23; (37 °C) -2.57 ± 0.23.

Take ACCUAGCAAUAUUACGGUAG: the “self-splicing fitness (ln)” value is -3.45 ± 0.15 (30 °C) and -2.49 ± 0.18 (37 °C). For the sequence ACCUAGCAAUAUUACGGUCA, the “self-splicing fitness (ln)” value is, setting by setting: (30 °C) -1.74 ± 0.091; (37 °C) -0.306 ± 0.082. Take ACCUAGCAAUAUUACGGUCU: the “self-splicing fitness (ln)” value (30 °C) was -1.69 ± 0.096 and the “self-splicing fitness (ln)” value (37 °C) was -0.98 ± 0.11.
